The values that follow come from US20250057968A1, “ANTI-DLL3 ANTIBODY AND PHARMACEUTICAL USE THEREOF, AND ANTIBODY-DRUG CONJUGATE CONTAINING ANTI-DLL3 ANTIBODY” (Jiangsu Hengrui Pharmaceuticals Co., Ltd., priority 2021, published 2025).

For assay [1], the target named is T1, Human DLL3 full-length protein on cells (human, UniProt Q9NYJ7 27-618).
T1 construct: H1184 and DMS53 express DLL3 themselves; The cell line is named under assay; also called H1184 cells; DLL3/H82
T1 sequence: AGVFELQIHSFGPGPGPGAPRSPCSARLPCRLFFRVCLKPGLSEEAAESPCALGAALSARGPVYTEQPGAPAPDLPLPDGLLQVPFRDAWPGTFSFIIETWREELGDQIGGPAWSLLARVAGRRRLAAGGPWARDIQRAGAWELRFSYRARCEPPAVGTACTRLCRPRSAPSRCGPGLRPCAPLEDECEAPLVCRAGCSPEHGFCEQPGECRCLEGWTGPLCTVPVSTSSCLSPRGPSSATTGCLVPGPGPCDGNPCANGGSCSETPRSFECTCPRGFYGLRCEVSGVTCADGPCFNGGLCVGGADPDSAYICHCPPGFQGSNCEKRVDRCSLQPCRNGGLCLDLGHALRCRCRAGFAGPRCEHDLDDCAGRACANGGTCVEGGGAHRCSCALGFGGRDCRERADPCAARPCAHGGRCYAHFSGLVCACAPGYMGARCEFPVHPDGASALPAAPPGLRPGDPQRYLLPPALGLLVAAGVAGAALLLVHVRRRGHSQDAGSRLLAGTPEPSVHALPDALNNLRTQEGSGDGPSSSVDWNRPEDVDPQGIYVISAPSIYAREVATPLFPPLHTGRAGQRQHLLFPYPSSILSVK
Description: FACS on DLL3/H82 cells. The procedure:
Cells of the DLL3-expressing small cell lung cancer cell lines H1184 (ATCC, Cat. No. CRL-5858), DLL3/H82, cynoDLL3/CHO-s, and RatDLL3/CHO-s were suspended at 1×10^6/mL in FACS buffer (1% BSA+pH 7.4 PBS), and the cell suspensions were added to a 96-well round-bottom plate (Corning, 3795) at 100 μL/well. The plate was centrifuged at 300 g for 5 min, and the supernatant was removed. Different concentrations of test antibodies were added at 100 μL/well. The plate was incubated in the dark in a refrigerator at 4° C. for 1 h. After 3 washes by centrifugation at 300 g, working concentrations of APC anti-human IgG Fc (BioLegend, 410712) or PE F(ab′)2-goat anti-human IgG (invitrogen, H10104) were added. The plate was incubated in the dark in a refrigerator at 4° C. for 40 min. After 3 washes by centrifugation at 300 g, the geometric mean fluorescence intensity was measured on an Invitrogen flow cytometer, and the EC50 values of the antibodies in binding to DLL3-expressing cells were calculated.

Assay [2] concerns the target T2, human DLL3 (ACRO, DLL3-H52H4) (human, UniProt Q9NYJ7 27-479).
T2 construct: bought antigen of the Biacore assay; construct not described
T2 sequence (looked up): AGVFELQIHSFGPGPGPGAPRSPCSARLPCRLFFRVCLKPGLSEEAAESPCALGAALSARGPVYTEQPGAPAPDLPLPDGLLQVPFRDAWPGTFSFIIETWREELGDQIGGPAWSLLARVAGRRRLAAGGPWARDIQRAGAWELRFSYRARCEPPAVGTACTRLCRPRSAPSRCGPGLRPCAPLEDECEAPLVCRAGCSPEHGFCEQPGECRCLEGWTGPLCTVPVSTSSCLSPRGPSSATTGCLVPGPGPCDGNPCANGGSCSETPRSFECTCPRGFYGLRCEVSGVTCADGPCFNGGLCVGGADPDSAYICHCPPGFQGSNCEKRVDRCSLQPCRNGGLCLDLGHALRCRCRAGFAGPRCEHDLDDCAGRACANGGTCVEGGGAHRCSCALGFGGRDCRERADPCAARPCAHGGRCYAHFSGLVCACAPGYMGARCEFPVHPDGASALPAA
Description: SPR (Biacore 8K), antibody captured on Protein A chip, 1:1 fit. From the text: (§1) Test antibodies were affinity-captured with a Protein A biosensor chip (Cat. #29127556, Cytiva) for 18 seconds, and then the antigens human DLL3 (ACRO, DLL3-H52H4), cynomolgus monkey DLL3 (KACTUS, DLL-RM103), and mouse DLL3 (KACTUS, DLL-MM103) were allowed to flow over the surface of the chip for 180 seconds, followed by 600 seconds of dissociation. Reaction signals were detected in real time using a Biacore 8K (Cytiva) instrument to obtain association and dissociation curves. After the dissociation in each experimental cycle, the biosensor chip was washed and regenerated with a 10 mM glycine-hydrochloric acid solution (pH 1.5) (Cat. #BR-1003-54, Cytiva). A 1:1 model was fit to the data. The results are shown in Table 12-1, Table 12-2, and Table 12-3.
(In general: In SPR one partner is held on a chip, and binding of the other changes the refractive index at the surface.)

A further assay has as its target T3, human DLL3 (Homo sapiens, UniProt Q9NYJ7).
T3 construct: purchased ACRO DLL3-H52H4
T3 sequence (Q9NYJ7 27-492 limits assumed): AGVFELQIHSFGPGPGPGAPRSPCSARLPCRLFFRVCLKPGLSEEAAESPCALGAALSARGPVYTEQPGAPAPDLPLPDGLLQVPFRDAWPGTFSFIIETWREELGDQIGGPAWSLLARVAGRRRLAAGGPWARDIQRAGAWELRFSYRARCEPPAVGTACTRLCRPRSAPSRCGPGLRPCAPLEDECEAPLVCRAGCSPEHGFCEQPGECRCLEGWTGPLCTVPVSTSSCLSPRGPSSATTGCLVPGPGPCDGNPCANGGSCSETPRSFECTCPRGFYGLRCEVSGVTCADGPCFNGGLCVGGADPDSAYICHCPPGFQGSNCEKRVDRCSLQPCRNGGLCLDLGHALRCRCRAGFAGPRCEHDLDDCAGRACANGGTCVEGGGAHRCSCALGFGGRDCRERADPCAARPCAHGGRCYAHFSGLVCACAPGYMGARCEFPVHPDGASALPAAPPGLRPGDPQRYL
The assay can be described thus: Biacore antibody affinity assay, human DLL3. It is filed as binding.
Excerpt: as §1

As a reminder, the EC50 is the concentration giving half of the maximal effect. The Kd is the equilibrium constant for the complex coming apart. Higher therefore signals lower affinity. A word on the koff: it is the first-order rate constant of dissociation. Lower therefore signals slow dissociation. The kon is the rate constant with which the complex forms.

B1: hAb100L1H2 (antibody, human IgG1, kappa, V domains shown)
VH: EVQLVESGGGLVKPGGSLRLSCAASGFTFSDSGMHWIRQAPGKGLEWVAYISSGSSTIHYADTVKGRFTISRDNAKNSLYLQMNSLRAEDTAVYYCASPLYYYGRSYNAVAYWGQGTTVTVSS
VL: DIQMTQSPSSLSASVGDRVTITCHASQNINVWLSWYQQKPGKVPKLLIYKASDLHTGVPSRFSGSGSGTDFTLTISSLQPEDVATYYCQQGQSYPLTFGGGTKVEIKR
Regarding B1, in assay [1], the midpoint of the response, the EC50, lay at 0.3 nM and the Emax came to 14800. In addition, in assay [2], the Kd was 0.467 nM, the koff turned out to be 0.000365 s⁻¹ and the kon amounted to 781000 M⁻¹ s⁻¹.

B2: M100CHI (antibody, human IgG1, kappa, V domains shown)
VH: EVQLVESGGGLVKPGGSLKLSCAASGFTFSDSGMHWIRQAPEKGLEWVAYISSGSSTIHYADTVKGRFTISRDNAKNTLFLQMTSLRSEDTAMYYCASPLYYYGRSYNAVAYWGQGTSVTVSS
VL: DIQMNQSPSSLSASLGDTITITCHASQNINVWLSWYQQKPGNIPKLLIYKASDLHTGVPSRFSGSGSGTGFTLTISSLQPEDIATYYCQQGQSYPLTFGGGTKLEIKR
notes: murine variable regions on human IgG1 / kappa constant regions; also called chimeric antibody of mAb100
For the molecule B2, in assay [1], the EC50 amounted to 0.25 nM and the Emax stood at 13500. In assay [2], binding was put at a Kd of 0.528 nM, the off-rate constant (koff) is 0.000546 s⁻¹ and the association rate constant (kon) turned out to be 1.03e+06 M⁻¹ s⁻¹.

B3: hAb100L2H4 (antibody, human IgG1, kappa, V domains shown)
VH: EVQLVESGGGLVKPGGSLRLSCAASGFTFSDSGMHWIRQAPGKGLEWVAYISSGSSTIHYADTVKGRFTISRDNAKNSLYLQMNSLRAEDTAVYYCASPLYYYGRSYNGVAYWGQGTTVTVSS
VL: DIQMTQSPSSLSASVGDRVTITCHASQNINVWLSWYQQKPGKIPKLLIYKASDLHTGVPSRFSGSGSGTDFTLTISSLQPEDVATYYCQQGQSYPLTFGGGTKVEIKR
In assay [1], B3 had an EC50 of 0.32 nM and an Emax of 13200. For the same molecule, in assay [2], the Kd was determined as 1 nM, the koff came out at 0.000655 s⁻¹ and the association rate constant (kon) was 652000 M⁻¹ s⁻¹.

B4: hAb100L1H4 (antibody, human IgG1, kappa, V domains shown)
VH: EVQLVESGGGLVKPGGSLRLSCAASGFTFSDSGMHWIRQAPGKGLEWVAYISSGSSTIHYADTVKGRFTISRDNAKNSLYLQMNSLRAEDTAVYYCASPLYYYGRSYNGVAYWGQGTTVTVSS
VL: DIQMTQSPSSLSASVGDRVTITCHASQNINVWLSWYQQKPGKVPKLLIYKASDLHTGVPSRFSGSGSGTDFTLTISSLQPEDVATYYCQQGQSYPLTFGGGTKVEIKR
Take B4: in assay [1], the midpoint of the response, the EC50, lay at 0.22 nM and the Emax was 14900. Further, in assay [2], the Kd stood at 0.729 nM, the koff amounted to 0.000254 s⁻¹ and the on-rate constant (kon) was found to be 348000 M⁻¹ s⁻¹.

B5: hAb100L2H1 (antibody, human IgG1, kappa, V domains shown)
VH: EVQLVESGGGLVKPGGSLRLSCAASGFTFSDSGMHWIRQAPGKGLEWVSYISSGSSTIHYADTVKGRFTISRDNAKNSLYLQMNSLRAEDTAVYYCASPLYYYGRSYNAVAYWGQGTTVTVSS
VL: DIQMTQSPSSLSASVGDRVTITCHASQNINVWLSWYQQKPGKIPKLLIYKASDLHTGVPSRFSGSGSGTDFTLTISSLQPEDVATYYCQQGQSYPLTFGGGTKVEIKR
In assay [1], B5 displayed an EC50 of 0.29 nM and an Emax of 14400. In assay [2], this molecule gave an equilibrium dissociation constant (Kd) of 1.1 nM, a koff of 0.000629 s⁻¹ and an on-rate (kon) of 572000 M⁻¹ s⁻¹.

B6: hAb100L1H3 (antibody, human IgG1, kappa, V domains shown)
VH: EVQLVESGGGLVKPGGSLRLSCAASGFTFSDSGMHWIRQAPGKGLEWVAYISSGSSTIHYADTVKGRFTISRDNAKNSLYLQMNSLRAEDTAVYYCASPLYHYGRSYNAVAYWGQGTTVTVSS
VL: DIQMTQSPSSLSASVGDRVTITCHASQNINVWLSWYQQKPGKVPKLLIYKASDLHTGVPSRFSGSGSGTDFTLTISSLQPEDVATYYCQQGQSYPLTFGGGTKVEIKR
B6: in assay [1], a half-maximal response (EC50) required 0.25 nM and the Emax is 14900. In assay [2], this molecule displayed a Kd of 0.424 nM, a koff of 0.000352 s⁻¹ and a kon of 832000 M⁻¹ s⁻¹.

B7: hAb100L2H2 (antibody, human IgG1, kappa, V domains shown)
VH: EVQLVESGGGLVKPGGSLRLSCAASGFTFSDSGMHWIRQAPGKGLEWVAYISSGSSTIHYADTVKGRFTISRDNAKNSLYLQMNSLRAEDTAVYYCASPLYYYGRSYNAVAYWGQGTTVTVSS
VL: DIQMTQSPSSLSASVGDRVTITCHASQNINVWLSWYQQKPGKIPKLLIYKASDLHTGVPSRFSGSGSGTDFTLTISSLQPEDVATYYCQQGQSYPLTFGGGTKVEIKR
For the molecule B7, in assay [1], the EC50 is 0.16 nM and the Emax is 14800. In assay [2], the Kd came out at 0.437 nM, the koff stood at 0.00037 s⁻¹ and the kon was 848000 M⁻¹ s⁻¹.

B8: hAb100L2H3 (antibody, human IgG1, kappa, V domains shown)
VH: EVQLVESGGGLVKPGGSLRLSCAASGFTFSDSGMHWIRQAPGKGLEWVAYISSGSSTIHYADTVKGRFTISRDNAKNSLYLQMNSLRAEDTAVYYCASPLYHYGRSYNAVAYWGQGTTVTVSS
VL: DIQMTQSPSSLSASVGDRVTITCHASQNINVWLSWYQQKPGKIPKLLIYKASDLHTGVPSRFSGSGSGTDFTLTISSLQPEDVATYYCQQGQSYPLTFGGGTKVEIKR
In assay [1], B8 yielded an EC50 of 0.3 nM and an Emax of 14800. In assay [2], this molecule gave a Kd of 0.664 nM, a koff of 0.000268 s⁻¹ and a kon of 404000 M⁻¹ s⁻¹.

B9: hAb6L3H2: humanized antibody of mAb6: hAb6VH2 (SEQ ID NO: 33) + hAb6VL3 (SEQ ID NO: 47), constant regions SEQ ID NO: 28/29 (antibody, V domains shown)
VH: EVQLVQSGAEVKKPGASVKVSCKASGYTFTDYYMNWVRQAPGQRLEWMGIINPYSGVTIYNHKFKGRVTLTVDKSANTAYMELSSLRSEDTAVYYCARQDSLLDYAMDYWGQGTTVTVSS
VL: DIQMTQSPSSLSASVGDRVTITCHASQGISGNMGWLQQKPGKSFKGLIYHGANLEDGVPSRFSGSGSGADYTLTISSLQPEDFATYYCVQYAQFPYTFGGGTKVEIK
modifications: constant regions SEQ ID 28/29; hAb6 VH2; hAb6 VL3
For B9, in the assay with human DLL3, the “ka” value came out at 716000 M⁻¹ s⁻¹ and the “kd” value was determined as 0.00114 s⁻¹.
